{"source": "paper PMC2832190", "molecular_target": "(Ni2+-NTA)2-Cy3-His6-AGT (O6-alkylguanine-DNA alkyltransferase) (human, UniProt P16455 1-207)", "sequence (P16455 whole entry)": "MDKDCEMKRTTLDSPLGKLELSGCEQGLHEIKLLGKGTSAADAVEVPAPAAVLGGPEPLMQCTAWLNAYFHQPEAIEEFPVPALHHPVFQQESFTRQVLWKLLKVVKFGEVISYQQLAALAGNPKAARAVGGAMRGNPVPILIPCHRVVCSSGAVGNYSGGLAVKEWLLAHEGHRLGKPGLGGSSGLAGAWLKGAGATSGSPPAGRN", "test": "FRET", "data": [{"binder": "GACTGACTGACTGACTGACTGACTGA (ssDNA)", "note": "[FAM-DNA 26-mer]", "values": [{"measurement": "apparent K (half saturation)", "result": 554000, "unit": "M⁻¹"}]}]}
